Source: patent US6875581 (GENOPIA BIOMEDICAL, dated 2005)
Where no end group is shown, it is not given here. [ ]: non-standard residue; d: D form. pS = N[C@@H](COP(=O)(O)O)C(=O)O

How the values were obtained:
[1] = target: T1, calcineurin-A-beta2/calcineurin-B (human, UniProt P16298 2-524; P63098 1-170); experiment: laser fluorescence correlation spectroscopy (FCS)
T1 construct: also called CNAb2-pQE30 product

[2] = target: T2, calcineurin-A-beta1/calcineurin-B (human, UniProt P16298 2-524; P63098 1-170); experiment: laser fluorescence correlation spectroscopy (FCS)
T2 construct: also called CNAb1-pQE30 product

binding result [1]: binds | binding result [2]: binds
B1: RII-Fluophos (peptide)
peptide: DLDVPIPGRFDRRV[pS](fluorescein)VAAE
notes: Synthetic peptide; It was not converted by calcineurin; also called Fluophos-RII-peptide; fluorescent labeled RII-peptide
